Assay [1] has as its target MERS-CoV full-length spike trimer antigen (amino acids 1 to 1275 of the spike protein, lacking the … (MERS-CoV, UniProt K9N5Q8 18-1275)).
Assay [2] deals with MERS-CoV S1 antigen (S1 domain, amino acids 1 to 757 of the spike protein) (MERS-CoV, UniProt K9N5Q8 18-757).
Assay [3] concerns the target MERS-CoV RBD antigen (receptor binding domain, amino acids 377 to 588 of the spike protein) (MERS-CoV, UniProt K9N5Q8 377-588).
Assay [4] deals with T1, MERS-CoV spike protein on live MERS-CoV (EMC, KNIH-002, KNIH-016 and KNIH-042 strains) (MERS-CoV).
T1 chain: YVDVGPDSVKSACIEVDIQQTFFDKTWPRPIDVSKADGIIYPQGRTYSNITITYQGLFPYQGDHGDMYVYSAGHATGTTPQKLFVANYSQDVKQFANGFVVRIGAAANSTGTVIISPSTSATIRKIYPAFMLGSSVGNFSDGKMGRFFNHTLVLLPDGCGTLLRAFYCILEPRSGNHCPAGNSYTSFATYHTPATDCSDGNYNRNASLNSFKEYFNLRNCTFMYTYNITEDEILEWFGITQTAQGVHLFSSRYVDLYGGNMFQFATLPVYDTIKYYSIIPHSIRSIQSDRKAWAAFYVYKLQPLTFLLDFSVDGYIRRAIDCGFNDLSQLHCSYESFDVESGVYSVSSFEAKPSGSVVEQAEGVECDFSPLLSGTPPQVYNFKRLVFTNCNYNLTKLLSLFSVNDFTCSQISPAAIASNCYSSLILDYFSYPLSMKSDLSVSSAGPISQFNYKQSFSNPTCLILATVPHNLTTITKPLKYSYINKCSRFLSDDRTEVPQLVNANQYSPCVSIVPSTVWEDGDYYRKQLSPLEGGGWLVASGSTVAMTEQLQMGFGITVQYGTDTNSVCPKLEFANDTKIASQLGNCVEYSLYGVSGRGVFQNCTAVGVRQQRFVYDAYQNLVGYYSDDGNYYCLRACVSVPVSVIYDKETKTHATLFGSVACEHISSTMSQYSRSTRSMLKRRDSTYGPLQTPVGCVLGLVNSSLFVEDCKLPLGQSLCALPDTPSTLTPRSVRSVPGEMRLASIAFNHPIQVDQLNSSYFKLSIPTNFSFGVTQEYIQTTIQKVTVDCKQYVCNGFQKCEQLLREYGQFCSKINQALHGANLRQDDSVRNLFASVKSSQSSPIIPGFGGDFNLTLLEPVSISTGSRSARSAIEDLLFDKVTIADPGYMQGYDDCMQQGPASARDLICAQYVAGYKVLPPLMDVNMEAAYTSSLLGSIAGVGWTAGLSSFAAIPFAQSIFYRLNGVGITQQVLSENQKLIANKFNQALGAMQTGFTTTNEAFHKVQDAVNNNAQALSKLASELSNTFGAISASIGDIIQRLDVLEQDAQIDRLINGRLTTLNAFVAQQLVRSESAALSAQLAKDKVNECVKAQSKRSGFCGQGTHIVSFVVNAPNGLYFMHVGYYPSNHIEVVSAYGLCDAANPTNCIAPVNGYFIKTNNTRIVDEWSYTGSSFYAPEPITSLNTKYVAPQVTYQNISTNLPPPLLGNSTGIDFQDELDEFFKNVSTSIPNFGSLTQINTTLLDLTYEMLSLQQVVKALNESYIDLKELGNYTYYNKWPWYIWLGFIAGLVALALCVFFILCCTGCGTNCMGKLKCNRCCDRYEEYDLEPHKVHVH
Kind of assay: cell-based or functional assay. Details: ND50 (PRNT with MERS-CoV): unit not given beside the values.

B1: 90-E5 antibody (antibody, V domains shown)
VH: QVQLVQSGAEVKKPGSSVKVSCKASGGTFSSYTINWVRQAPGQGLEWMGGIIPIFGTANYAQKFQGRVTITADASTSTAYMELSSLRSEDTAVYYCARVLLRSSSWFSSNWFDPWGQGTLVTVSS
VL: QSVLTQPPSVSGAPGQRVTISCTGSSSNIGAGYDVHWYQQLPGTAPKVLIYGNSNRPSGVPDRFSGSKSDTSASLAITGLQAEDEADYYCQSYDSSLSVVFGGGTKLTVLG
Consider B1, for which the “EC50 (read off the curve)” value is approximately 0.01 µg/mL in assay [1], approximately 0.03 µg/mL in assay [2] and approximately 0.07 µg/mL in assay [3]. Also, the “ND50 (PRNT with MERS-CoV)” value in assay [4] amounted to 6.6. The “ND50 antibody conc. (PRNT with MERS-CoV)” value in assay [4] came to 1.51 µg/mL.

By EC50 (read off the curve) is commonly meant the midpoint of the concentration-response curve.

(Values after patent publication US20230265169A1 (US Dept. of Health and Human Services, published 2023).)
